Measured values taken from article PMC3787135.

Substrate: Nc1ncnc2c1ncn2[C@@H]1O[C@H](COP(=O)(O)OP(=O)(O)OP(=O)(O)O)[C@@H](O)[C@H]1O
Test: purified protein
Details: microtubules; standard assay conditions; apparent Km from gliding velocity

B1: kinesin-II (wild type heterotrimer KLP-11/KLP-20/KAP-1) (Caenorhabditis elegans) (protein)
chain 1: MVEIMKKSSKQETVKVIVRCRPLSSQEIANNYSKIVHMRPQRGQIELKNPKEQDEPSKDFTFDAIYDENSTQSDLYEETFRDLVDSVLNGYNATIFAYGQTGTGKTHTMEGKSSDPEQRGVIYKCIDHIFEHMAASHNQEYLVRASYLEIYQEELRDLLEAESNKKLEIKERPDGGVYVKDLTSKLTRTVGEIHEVMIRGNGHRSVGRTNMNEHSSRSHAIFIITVECSRIGEDGESHITVGRLNLVDLAGSERQSKTGATGERFKEATKINLSLSALGNVISALVDAKSAHIPYRDSKLTRLLQDSLGGNSKTVMVACIGPASYNFEETLGTLRYANRAKNIKNQPKINEDPKDALLREFQEEIEMLREQLKQRKTRSRDGATQSFYDAERAKLEDDIEAIQKDDSLIKHEKDRLIREIQEKHDLLEKERIEQARVAERIANIQSRLIVGSEEDGRLESRTKEQHAQLEKKRRELAEQKRREREMVEALERQEEDTVDLKQTFSDLRTEVEAKTKKLKKMLIKLRQARNEIRDVSGAYSDERQDLDQTIAEVSKELKLKLLIVENFIPRDVSERIKERAEWNEDSFEWNVNAFQSTSSNSSTPLNNTIEVNEDGVFTRSSGADSGVSVSGGNGTPATSQFLDKRLVATPGCRRPMSMCERMLVETAREQFGAQRRPPISGSGSFVEATIPEETIRFCGENVVVFSALERFVPEVTDSDPSTFSNSMMMSARRPSIENLTIDASKVLVPILNQSTMILKNSKNGQARNDTMPPNGSMRRSQN
chain 2: MEGAEKVKVVVRCRPISTTEKLQGHKIAVTCNDEEKAVNIKSLSQEDPPRTFYFDAVFSPNTDQMTVYNVAARPIVENVLKGYNGTIFAYGQTGTGKTFTMAGDLEPVEMRGIIPNSFAHIFDHIAKCQHDTTFLVRVSYLEIYNEEIRDLLSKDHNGNLEIKERPDVGVYVRNLSNPTVENASKMQALMEFGSKNRKVGATAMNLESSRSHAMFTVTIESCRNGLVTQGKLQLVDLAGSERQSKTGAQGERLKEAAKINLSLSTLGNVISSLVDGKSTHIPYRNSKLTRLLQDSLGGNSKTVMIANVGPATYNYDETLSTLRYANRAKNIQNVAKINEDPKDAQLRKFQLEIEALRKILDEENPGDDENQEEAWEAKMQEREVEMEKKRKILEERVNSAVNDEETHRLVKEMMENEAELKKARSEHEKLRSKLEKIEKKLIVGGENLLEKVEEQAKLLEVNNKELEQSKFQEAHLRTQLEERTAVKVEIEERYSSLQEEAFVKSKKIKKVSNELKDARAELKDLEEDHQRQVEAMLDDIRQLRKELLLNIAIIDEYIPVEHVELIEKYVSWSEEHGDWQLKAIAYTGNNMRASAPPAKKEFSNNNQTVPMYYSYRADLGASTAEHRPRTSSKKHRASIRLQQLLT
Vmax: 15.6 µM/min
